# Experimental data from patent US20140274782A1, “AFFINITY REAGENTS AND METHODS FOR DETECTION, PURIFICATION, AND PROTEOMIC ANALYSIS OF METHYLATED PROTEINS” (The Board of Trustees of the Leland Stanford Junior …, priority 2013, published 2014).
# T1: G9a and GLP (Homo sapiens, UniProt Q96KQ7+Q9H9B1)
# T1 sequence (Q96KQ7 2-1210 limits assumed): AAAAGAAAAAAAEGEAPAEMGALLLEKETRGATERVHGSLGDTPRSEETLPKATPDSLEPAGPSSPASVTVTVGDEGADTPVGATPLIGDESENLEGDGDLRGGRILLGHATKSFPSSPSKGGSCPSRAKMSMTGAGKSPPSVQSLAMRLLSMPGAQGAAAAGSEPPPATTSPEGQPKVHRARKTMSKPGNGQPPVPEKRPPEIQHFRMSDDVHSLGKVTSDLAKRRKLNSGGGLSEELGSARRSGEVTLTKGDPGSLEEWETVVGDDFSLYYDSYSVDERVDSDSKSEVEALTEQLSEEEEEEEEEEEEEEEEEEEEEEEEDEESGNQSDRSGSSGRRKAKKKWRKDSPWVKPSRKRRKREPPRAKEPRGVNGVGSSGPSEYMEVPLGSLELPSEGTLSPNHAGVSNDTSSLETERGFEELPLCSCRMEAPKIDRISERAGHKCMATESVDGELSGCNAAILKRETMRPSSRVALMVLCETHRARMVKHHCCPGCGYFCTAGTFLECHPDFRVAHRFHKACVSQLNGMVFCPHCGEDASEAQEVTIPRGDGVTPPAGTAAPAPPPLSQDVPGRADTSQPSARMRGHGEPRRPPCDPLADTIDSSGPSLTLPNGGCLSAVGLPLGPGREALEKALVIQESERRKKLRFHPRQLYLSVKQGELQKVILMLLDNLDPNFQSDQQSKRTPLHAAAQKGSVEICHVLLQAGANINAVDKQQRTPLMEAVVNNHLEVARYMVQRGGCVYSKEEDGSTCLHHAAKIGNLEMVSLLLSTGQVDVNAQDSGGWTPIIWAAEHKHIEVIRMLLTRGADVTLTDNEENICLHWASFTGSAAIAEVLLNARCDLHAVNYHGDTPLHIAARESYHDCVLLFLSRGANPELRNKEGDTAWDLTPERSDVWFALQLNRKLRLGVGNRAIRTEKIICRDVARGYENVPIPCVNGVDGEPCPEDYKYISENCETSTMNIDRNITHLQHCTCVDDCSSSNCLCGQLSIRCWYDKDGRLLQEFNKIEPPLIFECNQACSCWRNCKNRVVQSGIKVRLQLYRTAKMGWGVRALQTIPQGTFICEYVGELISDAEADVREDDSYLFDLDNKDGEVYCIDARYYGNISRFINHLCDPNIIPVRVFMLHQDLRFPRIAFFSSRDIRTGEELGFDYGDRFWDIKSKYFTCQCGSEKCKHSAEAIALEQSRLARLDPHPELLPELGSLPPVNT
# T1 sequence (Q9H9B1 2-1298 limits assumed): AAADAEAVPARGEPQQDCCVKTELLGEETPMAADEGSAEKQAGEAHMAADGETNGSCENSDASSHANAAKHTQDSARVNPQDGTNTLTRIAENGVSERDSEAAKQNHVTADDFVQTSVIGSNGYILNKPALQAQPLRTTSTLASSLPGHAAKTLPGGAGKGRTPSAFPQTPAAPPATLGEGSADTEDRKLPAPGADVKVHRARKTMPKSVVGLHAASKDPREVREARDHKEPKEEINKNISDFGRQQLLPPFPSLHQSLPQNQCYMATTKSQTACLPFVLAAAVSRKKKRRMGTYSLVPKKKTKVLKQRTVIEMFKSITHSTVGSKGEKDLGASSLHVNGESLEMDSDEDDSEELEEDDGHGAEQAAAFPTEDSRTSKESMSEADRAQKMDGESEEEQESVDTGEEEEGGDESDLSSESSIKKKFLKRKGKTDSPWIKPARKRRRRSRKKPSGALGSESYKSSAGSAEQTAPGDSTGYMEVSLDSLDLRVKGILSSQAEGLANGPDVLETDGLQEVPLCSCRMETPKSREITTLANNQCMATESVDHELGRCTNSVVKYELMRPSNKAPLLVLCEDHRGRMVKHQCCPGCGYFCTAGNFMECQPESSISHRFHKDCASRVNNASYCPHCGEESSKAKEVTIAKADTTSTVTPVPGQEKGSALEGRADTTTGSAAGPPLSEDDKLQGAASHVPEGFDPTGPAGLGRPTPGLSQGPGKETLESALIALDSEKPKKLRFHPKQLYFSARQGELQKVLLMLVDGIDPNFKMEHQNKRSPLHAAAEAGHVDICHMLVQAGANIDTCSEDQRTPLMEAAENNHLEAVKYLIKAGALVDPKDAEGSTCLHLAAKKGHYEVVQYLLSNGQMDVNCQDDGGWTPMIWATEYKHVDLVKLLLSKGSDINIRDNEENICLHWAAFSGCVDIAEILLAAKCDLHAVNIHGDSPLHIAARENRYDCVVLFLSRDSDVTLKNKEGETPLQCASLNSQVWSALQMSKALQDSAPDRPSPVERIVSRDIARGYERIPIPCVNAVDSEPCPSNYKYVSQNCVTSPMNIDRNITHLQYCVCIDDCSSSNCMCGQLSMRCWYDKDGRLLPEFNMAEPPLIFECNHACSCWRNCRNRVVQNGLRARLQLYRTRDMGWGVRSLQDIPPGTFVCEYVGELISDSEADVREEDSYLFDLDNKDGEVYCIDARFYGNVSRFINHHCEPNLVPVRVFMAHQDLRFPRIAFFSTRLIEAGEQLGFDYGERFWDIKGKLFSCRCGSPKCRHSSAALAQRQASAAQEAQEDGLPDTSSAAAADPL
# Key:
# 3×MBT domain of L3MBTL1 = assay: Triple SILAC pull-down, 3xMBT/3xMBTD355N ratio (cytoplasmic, nuclear and chromatin fractions of 293T cells); format: binding, human; details: SILAC ratio 3xMBT vs 3xMBTD355N pull-down, 293T cells, all values in log base 2; for 3xMBT/D355N UNC Heavy: experiment with UNC0638 in heavy SILAC media; for 3xMBT/D355N UNC Light: experiment with UNC0638 in light SILAC media;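 as to all read-outs here: proteins quantified with MaxQuant, requiring at least two unique peptides and quantification in both label directions, normalized to the mean of proteins from a digested loading control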
# G9a and GLP = target: T1, G9a and GLP; assay: Triple SILAC pull-down after UNC0638 treatment of 293T cells, DMSO/UNC0638 ratio of protein captured by 3×MBT; format: cell-based; parameters: endogenous in cells; host or cells: HEK 293T; details: all values in log base 2; for Relative to UNC0638 UNC Heavy / Relative to UNC0638 UNC Light: SILAC ratio DMSO relative to UNC0638, pull-down with 3xMBT; for Relative to UNC0638 UNC Heavy: UNC0638 in heavy SILAC media; for Relative to UNC0638 UNC Light: UNC0638 in light SILAC media; for Relative to UNC0638 Average: average of UNC Light and UNC Heavy experiments;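 as to all read-outs here: mass spectrometry (Q-Exactive) SILAC quantitation, DMSO/UNC0638 ratio computed after subtracting 3×MBTD355N mutant pull-down background, only proteins with at least twofold 3×MBT over mutant signal considered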
# Protocol: For UNC0638 treatments cells were treated for 24 hours with UNC0638 at 2.5 μM or DMSO vehicle control. One experiment treated cells in light media with UNC0638, the other treated cells in heavy media. Both experiments included cells in medium media treated with DMSO for negative control pull-down with 3×MBTD355N.
# UNC0638 treatment experiments used a Q-Exactive mass spectrometer (ThermoFisher Scientific). A 25 cm HPLC column with 3 μm Reliasil (Orochem) was used to separate peptides over a 4 hour gradient from 0 to 75% acetonitrile. Ions were generated using a custom nanospray source flowing at 250 nL/minute. Mass spectrometry settings were 70,000 MS1 resolution, data dependent selection of up to 20 precursor ions per cycle, dynamic exclusion of 30 seconds and isolation window of 2 m/z.
# For UNC0638 experiments the treated vs. untreated ratio was determined by subtracting the value from 3×MBTD355N prior to dividing values from the light and heavy channels. Only proteins showing a two-fold signal to background ratio (3×MBT/3×MBTD355N) were evaluated as potential G9a/GLP substrates.
Relative to UNC0638 UNC Heavy (G9a and GLP),Relative to UNC0638 UNC Light (G9a and GLP),Relative to UNC0638 Average (G9a and GLP),Molecule,3xMBT/D355N UNC Heavy (3×MBT domain of L3MBTL1),3xMBT/D355N UNC Light (3×MBT domain of L3MBTL1)
0.43 log base 2,−0.49 log base 2,−0.03 log base 2,"DDX49 (protein, UniProt Q9Y6V7 1-483, looked up) Probable ATP-dependent RNA …: MAGFAELGLSSWLVEQCRQLGLKQPTPVQLGCIPAILEGRDCLGCAKTGSGKTAAFVLPILQKLSEDPYGIFCLVLTPTRELAYQIAEQFRVLGKPLGLKDCIIVGGMDMVAQALELSRKPHVVIATPGRLADHLRSSNTFSIKKIRFLVMDEADRLLEQGCTDFTVDLEAILAAVPARRQTLLFSATLTDTLRELQGLATNQPFFWEAQAPVSTVEQLDQRYLLVPEKVKDAYLVHLIQRFQDEHEDWSIIIFTNTCKTCQILCMMLRKFSFPTVALHSMMKQKERFAALAKFKSSIYRILIATDVASRGLDIPTVQVVINHNTPGLPKIYIHRVGRTARAGRQGQAITLVTQYDIHLVHAIEEQIKKKLEEFSVEEAEVLQILTQVNVVRRECEIKLEAAHFDEKKEINKRKQLILEGKDPDLEAKRKAELAKIKQKNRRFKEKVEETLKRQKAGRAGHKGRPPRTPSGSHSGPVPSQGLV",3.17 log base 2,1.77 log base 2
−0.27 log base 2,0.13 log base 2,−0.07 log base 2,"GTPBP1 (protein, UniProt O00178 1-669, looked up) GTP-binding protein 1: MATERSRSAMDSPVPASMFAPEPSSPGAARAAAAAARLHGGFDSDCSEDGEALNGEPELDLTSKLVLVSPTSEQYDSLLRQMWERMDEGCGETIYVIGQGSDGTEYGLSEADMEASYATVKSMAEQIEADVILLRERQEAGGRVRDYLVRKRVGDNDFLEVRVAVVGNVDAGKSTLLGVLTHGELDNGRGFARQKLFRHKHEIESGRTSSVGNDILGFDSEGNVVNKPDSHGGSLEWTKICEKSTKVITFIDLAGHEKYLKTTVFGMTGHLPDFCMLMVGSNAGIVGMTKEHLGLALALNVPVFVVVTKIDMCPANILQETLKLLQRLLKSPGCRKIPVLVQSKDDVIVTASNFSSERMCPIFQISNVTGENLDLLKMFLNLLSPRTSYREEEPAEFQIDDTYSVPGVGTVVSGTTLRGLIKLNDTLLLGPDPLGNFLSIAVKSIHRKRMPVKEVRGGQTASFALKKIKRSSIRKGMVMVSPRLNPQASWEFEAEILVLHHPTTISPRYQAMVHCGSIRQTATILSMDKDCLRTGDKATVHFRFIKTPEYLHIDQRLVFREGRTKAVGTITKLLQTTNNSPMNSKPQQIKMQSTKKGPLTKRDEGGPSGGPAVGAPPPGDEASSVGAGQPAASSNLQPQPKPSSGGRRRGGQRHKVKSQGACVTPASGC",−0.64 log base 2,1.80 log base 2
−0.05 log base 2,−0.01 log base 2,−0.03 log base 2,"SMC1A (protein, UniProt Q14683 1-1233, looked up) Structural maintenance of …: MGFLKLIEIENFKSYKGRQIIGPFQRFTAIIGPNGSGKSNLMDAISFVLGEKTSNLRVKTLRDLIHGAPVGKPAANRAFVSMVYSEEGAEDRTFARVIVGGSSEYKINNKVVQLHEYSEELEKLGILIKARNFLVFQGAVESIAMKNPKERTALFEEISRSGELAQEYDKRKKEMVKAEEDTQFNYHRKKNIAAERKEAKQEKEEADRYQRLKDEVVRAQVQLQLFKLYHNEVEIEKLNKELASKNKEIEKDKKRMDKVEDELKEKKKELGKMMREQQQIEKEIKEKDSELNQKRPQYIKAKENTSHKIKKLEAAKKSLQNAQKHYKKRKGDMDELEKEMLSVEKARQEFEERMEEESQSQGRDLTLEENQVKKYHRLKEEASKRAATLAQELEKFNRDQKADQDRLDLEERKKVETEAKIKQKLREIEENQKRIEKLEEYITTSKQSLEEQKKLEGELTEEVEMAKRRIDEINKELNQVMEQLGDARIDRQESSRQQRKAEIMESIKRLYPGSVYGRLIDLCQPTQKKYQIAVTKVLGKNMDAIIVDSEKTGRDCIQYIKEQRGEPETFLPLDYLEVKPTDEKLRELKGAKLVIDVIRYEPPHIKKALQYACGNALVCDNVEDARRIAFGGHQRHKTVALDGTLFQKSGVISGGASDLKAKARRWDEKAVDKLKEKKERLTEELKEQMKAKRKEAELRQVQSQAHGLQMRLKYSQSDLEQTKTRHLALNLQEKSKLESELANFGPRINDIKRIIQSREREMKDLKEKMNQVEDEVFEEFCREIGVRNIREFEEEKVKRQNEIAKKRLEFENQKTRLGIQLDFEKNQLKEDQDKVHMWEQTVKKDENEIEKLKKEEQRHMKIIDETMAQLQDLKNQHLAKKSEVNDKNHEMEEIRKKLGGANKEMTHLQKEVTAIETKLEQKRSDRHNLLQACKMQDIKLPLSKGTMDDISQEEGSSQGEDSVSGSQRISSIYAREALIEIDYGDLCEDLKDAQAEEEIKQEMNTLQQKLNEQQSVLQRIAAPNMKAMEKLESVRDKFQETSDEFEAARKRAKKAKQAFEQIKKERFDRFNACFESVATNIDEIYKALSRNSSAQAFLGPENPEEPYLDGINYNCVAPGKRFRPMDNLSGGEKTVAALALLFAIHSYKPAPFFVLDEIDAALDNTNIGKVANYIKEQSTCNFQAIVISLKEEFYTKAESLIGVYPEQGDCVISKVLTFDLTKYPDANPNPNEQ",1.31 log base 2,1.83 log base 2
